Measured values published in PMC6555819, “Comprehensive study of nuclear receptor DNA binding provides a revised framework for understanding receptor specificity”.

B1: NRC3_wobSeed47_DR1_G11C_o1 (dsDNA)
DNA 1: GCGGAACGAGCGCAAAGTTGATAGCATCTGTCGACGGCGATTGACAGCGTAGAATGAAGG
DNA 2: CCTTCATTCTACGCTGTCAATCGCCGTCGACAGATGCTATCAACTTTGCGCTCGTTCCGC
B2: NRC3_wobSeed26_DR1_T19C_o1 (dsDNA)
DNA 1: GCTCTAGTTGGTCAAAGGCCACACACTCGAAATGCGGCGATTGACAGCGTAGAATGAAGG
DNA 2: CCTTCATTCTACGCTGTCAATCGCCGCATTTCGAGTGTGTGGCCTTTGACCAACTAGAGC
B3: NRC3_wobSeed137_DR5_A14C_o1 (dsDNA)
DNA 1: GCATATGTAGGTTCCATCCGGGTCATTCAGGCTATGGCGATTGACAGCGTAGAATGAAGG
DNA 2: CCTTCATTCTACGCTGTCAATCGCCATAGCCTGAATGACCCGGATGGAACCTACATATGC
B4: NRC3_wobSeed38_DR1_o1 (dsDNA)
DNA 1: GCCCTGCTAGGTCAATGGTCAGCTAAAGCAGCTCGCGCGATTGACAGCGTAGAATGAAGG
DNA 2: CCTTCATTCTACGCTGTCAATCGCGCGAGCTGCTTTAGCTGACCATTGACCTAGCAGGGC
B5: NRC3_wobSeed38_DR1_G11T_o1 (dsDNA)
DNA 1: GCCCTGCTAGTTCAATGGTCAGCTAAAGCAGCTCGCGCGATTGACAGCGTAGAATGAAGG
DNA 2: CCTTCATTCTACGCTGTCAATCGCGCGAGCTGCTTTAGCTGACCATTGAACTAGCAGGGC
B6: NRC3_wobSeed38_DR1_A9C_o1 (dsDNA)
DNA 1: GCCCTGCTCGGTCAATGGTCAGCTAAAGCAGCTCGCGCGATTGACAGCGTAGAATGAAGG
DNA 2: CCTTCATTCTACGCTGTCAATCGCGCGAGCTGCTTTAGCTGACCATTGACCGAGCAGGGC
B7: NRC3_random_hg19_239_o1 (dsDNA)
DNA 1: GCATACATAAGGTGATTTGGCTACATGTATAGACAGGCGATTGACAGCGTAGAATGAAGG
DNA 2: CCTTCATTCTACGCTGTCAATCGCCTGTCTATACATGTAGCCAAATCACCTTATGTATGC
B8: NRC3_wobSeed122_DR5_A20T_o1 (dsDNA)
DNA 1: GCGCTAGTTGGTCAGTAAATGGTCACACACCGGTCGGCGATTGACAGCGTAGAATGAAGG
DNA 2: CCTTCATTCTACGCTGTCAATCGCCGACCGGTGTGTGACCATTTACTGACCAACTAGCGC
B9: NRC3_wobSeed82_DR3_C13G_o1 (dsDNA)
DNA 1: GCATCGAAAGGTGGACGAGGTGAGTATACACCGTTTGCGATTGACAGCGTAGAATGAAGG
DNA 2: CCTTCATTCTACGCTGTCAATCGCAAACGGTGTATACTCACCTCGTCCACCTTTCGATGC
B10: NRC3_wobSeed90_DR3_C13A_o1 (dsDNA)
DNA 1: GCCATACAGGGTAAGCTAGGCCAGAGTAGGGACGGCGCGATTGACAGCGTAGAATGAAGG
DNA 2: CCTTCATTCTACGCTGTCAATCGCGCCGTCCCTACTCTGGCCTAGCTTACCCTGTATGGC
B11: NRC3_wobSeed40_DR1_G10A_o1 (dsDNA)
DNA 1: GCTAGCCTAAGTCATGGGCCAGTATACCACGCGAACGCGATTGACAGCGTAGAATGAAGG
DNA 2: CCTTCATTCTACGCTGTCAATCGCGTTCGCGTGGTATACTGGCCCATGACTTAGGCTAGC
B12: NRC3_wobSeed133_DR5_A14C_o1 (dsDNA)
DNA 1: GCCGTCCAAGGTCCATGCTAGGTCAGTGAAAGCATTGCGATTGACAGCGTAGAATGAAGG
DNA 2: CCTTCATTCTACGCTGTCAATCGCAATGCTTTCACTGACCTAGCATGGACCTTGGACGGC
B13: NRC3_wobSeed134_DR5_A14G_o1 (dsDNA)
DNA 1: GCGCTGCTAGGTCGACTGATGGTCAGCTAAAGCTCGGCGATTGACAGCGTAGAATGAAGG
DNA 2: CCTTCATTCTACGCTGTCAATCGCCGAGCTTTAGCTGACCATCAGTCGACCTAGCAGCGC
B14: NRC3_wobSeed61_DR2_G11C_o1 (dsDNA)
DNA 1: GCCGTCCAAGCTCAGCAGGTCAGTGAAAGCGACGTGGCGATTGACAGCGTAGAATGAAGG
DNA 2: CCTTCATTCTACGCTGTCAATCGCCACGTCGCTTTCACTGACCTGCTGAGCTTGGACGGC
B15: NRC3_wobSeed7_DR0_T6G_o1 (dsDNA)
DNA 1: GCTCAGATAGGTAAAGGTGAAAGTCGAACGATATGAGCGATTGACAGCGTAGAATGAAGG
DNA 2: CCTTCATTCTACGCTGTCAATCGCTCATATCGTTCGACTTTCACCTTTACCTATCTGAGC
B16: NRC3_wobSeed42_DR1_A14T_o1 (dsDNA)
DNA 1: GCTATACAGGGTCTAAGGCCAGAGTACGAATGTCGAGCGATTGACAGCGTAGAATGAAGG
DNA 2: CCTTCATTCTACGCTGTCAATCGCTCGACATTCGTACTCTGGCCTTAGACCCTGTATAGC
B17: NRC3_wobSeed15_DR0_G10T_o1 (dsDNA)
DNA 1: GCCGAACTATGTCAAGGACAGTGAATCTCCGCACGCGCGATTGACAGCGTAGAATGAAGG
DNA 2: CCTTCATTCTACGCTGTCAATCGCGCGTGCGGAGATTCACTGTCCTTGACATAGTTCGGC
B18: NRC3_wobSeed34_DR1_A9G_o1 (dsDNA)
DNA 1: GCATCGAAGGGTCGAAGGTGAGTATACCCACCCGAAGCGATTGACAGCGTAGAATGAAGG
DNA 2: CCTTCATTCTACGCTGTCAATCGCTTCGGGTGGGTATACTCACCTTCGACCCTTCGATGC
B19: NRC3_wobSeed6_DR0_G15C_o1 (dsDNA)
DNA 1: GCCCTAGCAGGCCACGGTCACTCAAGCATTTCGCTTGCGATTGACAGCGTAGAATGAAGG
DNA 2: CCTTCATTCTACGCTGTCAATCGCAAGCGAAATGCTTGAGTGACCGTGGCCTGCTAGGGC
B20: NRC3_wobSeed110_DR4_T27G_o1 (dsDNA)
DNA 1: GCTCTGCTAGGTCAACGATGGTCAGCGAATCTGCTAGCGATTGACAGCGTAGAATGAAGG
DNA 2: CCTTCATTCTACGCTGTCAATCGCTAGCAGATTCGCTGACCATCGTTGACCTAGCAGAGC
B21: NRC3_wobSeed4_DR0_G16T_o1 (dsDNA)
DNA 1: GCCCTACTGGGCCAATGTCATTGATCAGTCAAAGCAGCGATTGACAGCGTAGAATGAAGG
DNA 2: CCTTCATTCTACGCTGTCAATCGCTGCTTTGACTGATCAATGACATTGGCCCAGTAGGGC
B22: NRC3_wobSeed102_DR4_A9C_o1 (dsDNA)
DNA 1: GCCCTAGCCGGCCAATCTGGGTCACTCAAGGCTTGAGCGATTGACAGCGTAGAATGAAGG
DNA 2: CCTTCATTCTACGCTGTCAATCGCTCAAGCCTTGAGTGACCCAGATTGGCCGGCTAGGGC
B23: NRC3_wobSeed102_DR4_G11A_o1 (dsDNA)
DNA 1: GCCCTAGCAGACCAATCTGGGTCACTCAAGGCTTGAGCGATTGACAGCGTAGAATGAAGG
DNA 2: CCTTCATTCTACGCTGTCAATCGCTCAAGCCTTGAGTGACCCAGATTGGTCTGCTAGGGC
B24: NRC3_wobSeed14_DR0_G11T_o1 (dsDNA)
DNA 1: GCCCTGCTAGTTCATGGTCAGCTAATCTACAGTATGGCGATTGACAGCGTAGAATGAAGG
DNA 2: CCTTCATTCTACGCTGTCAATCGCCATACTGTAGATTAGCTGACCATGAACTAGCAGGGC
B25: NRC3_wobSeed99_DR4_A24T_o1 (dsDNA)
DNA 1: GCTCTCGGAGGACACGAAAGGTCTGAGCTCGACATCGCGATTGACAGCGTAGAATGAAGG
DNA 2: CCTTCATTCTACGCTGTCAATCGCGATGTCGAGCTCAGACCTTTCGTGTCCTCCGAGAGC
B26: NRC3_wobSeed99_DR4_G20A_o1 (dsDNA)
DNA 1: GCTCTCGGAGGACACGAAAAGTCAGAGCTCGACATCGCGATTGACAGCGTAGAATGAAGG
DNA 2: CCTTCATTCTACGCTGTCAATCGCGATGTCGAGCTCTGACTTTTCGTGTCCTCCGAGAGC
B27: NRC3_wobSeed50_DR2_A17T_o1 (dsDNA)
DNA 1: GCCCTAGTTGGTCAGGTGGTCACACACCGGATATGAGCGATTGACAGCGTAGAATGAAGG
DNA 2: CCTTCATTCTACGCTGTCAATCGCTCATATCCGGTGTGTGACCACCTGACCAACTAGGGC
B28: NRC3_wobSeed48_DR1_G5T_o1 (dsDNA)
DNA 1: GCCCTAGTAGGTTATGGGGCATTCAGGCAACGGTGAGCGATTGACAGCGTAGAATGAAGG
DNA 2: CCTTCATTCTACGCTGTCAATCGCTCACCGTTGCCTGAATGCCCCATAACCTACTAGGGC
B29: NRC3_wobSeed64_DR2_A9C_o1 (dsDNA)
DNA 1: GCTAGCCTCGGTCATTGGGCCAGTATAGTACGCATCGCGATTGACAGCGTAGAATGAAGG
DNA 2: CCTTCATTCTACGCTGTCAATCGCGATGCGTACTATACTGGCCCAATGACCGAGGCTAGC
B30: NRC3_wobSeed141_DR5_T5A_o1 (dsDNA)
DNA 1: GCAGACAAAGTTCAGGACGAGGTAACGTAAAGCACGGCGATTGACAGCGTAGAATGAAGG
DNA 2: CCTTCATTCTACGCTGTCAATCGCCGTGCTTTACGTTACCTCGTCCTGAACTTTGTCTGC
B31: NRC3_wobSeed2_DR0_A20T_o1 (dsDNA)
DNA 1: GCCCTAGTTGGTCAAGGTCTCACACGCTATAGGTACGCGATTGACAGCGTAGAATGAAGG
DNA 2: CCTTCATTCTACGCTGTCAATCGCGTACCTATAGCGTGTGAGACCTTGACCAACTAGGGC
B32: NRC3_wobSeed44_DR1_A14T_o1 (dsDNA)
DNA 1: GCTGAATGAGGTTTAAGATCAGGGAACGTGGCGTCGGCGATTGACAGCGTAGAATGAAGG
DNA 2: CCTTCATTCTACGCTGTCAATCGCCGACGCCACGTTCCCTGATCTTAAACCTCATTCAGC
B33: NRC3_wobSeed101_DR4_A14T_o1 (dsDNA)
DNA 1: GCCCTTACGGGTCTCTCCAGGTTATAGCATCGGAGTGCGATTGACAGCGTAGAATGAAGG
DNA 2: CCTTCATTCTACGCTGTCAATCGCACTCCGATGCTATAACCTGGAGAGACCCGTAAGGGC

target: PPARa:RXRa (Homo sapiens, UniProt Q07869;P19793 full;full); assay: no ligand; PBM; 270 nM : 90 nM RXRa; PBS pH 7.4, 2% milk, 0.02% Triton X-100, 1 mM DTT, BSA, 0.4 mg/ml salmon testes DNA; conditions: tags: GST kept;His cleaved; copies: 1;1; label: surface-attached array probe
Sequence (Q07869 whole entry, chain 1 of 2): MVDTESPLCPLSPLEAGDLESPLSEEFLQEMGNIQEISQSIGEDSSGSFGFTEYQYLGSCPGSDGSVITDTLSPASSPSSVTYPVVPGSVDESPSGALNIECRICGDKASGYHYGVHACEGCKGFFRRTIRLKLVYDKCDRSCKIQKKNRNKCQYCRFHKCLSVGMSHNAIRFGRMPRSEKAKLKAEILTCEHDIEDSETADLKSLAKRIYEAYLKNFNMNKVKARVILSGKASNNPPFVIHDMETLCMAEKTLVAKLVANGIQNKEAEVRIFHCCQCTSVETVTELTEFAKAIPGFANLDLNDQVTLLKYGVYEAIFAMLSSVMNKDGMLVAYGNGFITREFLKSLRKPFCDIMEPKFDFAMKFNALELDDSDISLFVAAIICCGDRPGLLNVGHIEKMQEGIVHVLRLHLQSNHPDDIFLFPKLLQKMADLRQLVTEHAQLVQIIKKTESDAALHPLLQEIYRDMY
Sequence (P19793 whole entry, chain 2 of 2): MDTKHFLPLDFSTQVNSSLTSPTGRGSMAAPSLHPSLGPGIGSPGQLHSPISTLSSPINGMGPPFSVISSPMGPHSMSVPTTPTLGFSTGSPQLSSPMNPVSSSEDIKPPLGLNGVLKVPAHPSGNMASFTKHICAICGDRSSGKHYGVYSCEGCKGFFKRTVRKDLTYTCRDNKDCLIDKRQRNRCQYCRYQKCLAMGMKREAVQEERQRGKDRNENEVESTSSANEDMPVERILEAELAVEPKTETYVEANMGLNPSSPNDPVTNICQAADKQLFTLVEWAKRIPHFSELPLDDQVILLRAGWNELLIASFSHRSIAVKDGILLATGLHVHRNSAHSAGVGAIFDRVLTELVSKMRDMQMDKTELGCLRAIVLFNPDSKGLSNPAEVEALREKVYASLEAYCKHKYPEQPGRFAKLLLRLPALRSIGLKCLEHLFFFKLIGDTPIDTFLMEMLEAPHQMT
How it was run: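 Each nuclear receptor dimer, without ligand, was incubated for 1 h on custom Agilent 4×180K protein-binding microarrays. Binding was detected with antibodies against each partner (one per run), and scanned fluorescence was regression-normalized. The binding z-scores are referenced to random human genomic background probes.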

| Binder | binding signal |
| --- | --- |
| B1 | 0.32 PBM z-score against 500 random probes |
| B2 | 3.15 PBM z-score against 500 random probes |
| B3 | 3.09 PBM z-score against 500 random probes |
| B4 | 3.19 PBM z-score against 500 random probes |
| B5 | 0.22 PBM z-score against 500 random probes |
| B6 | 0.02 PBM z-score against 500 random probes |
| B7 | 0.32 PBM z-score against 500 random probes |
| B8 | 0.26 PBM z-score against 500 random probes |
| B9 | 0.49 PBM z-score against 500 random probes |
| B10 | -0.35 PBM z-score against 500 random probes |
| B11 | -0.06 PBM z-score against 500 random probes |
| B12 | 0.33 PBM z-score against 500 random probes |
| B13 | 0.01 PBM z-score against 500 random probes |
| B14 | 0.35 PBM z-score against 500 random probes |
| B15 | 3.2 PBM z-score against 500 random probes |
| B16 | 0.39 PBM z-score against 500 random probes |
| B17 | 0.36 PBM z-score against 500 random probes |

| Binder | binding signal |
| --- | --- |
| B18 | 3.17 PBM z-score against 500 random probes |
| B19 | 0.43 PBM z-score against 500 random probes |
| B20 | 3.11 PBM z-score against 500 random probes |
| B21 | 0.47 PBM z-score against 500 random probes |
| B22 | 3.14 PBM z-score against 500 random probes |
| B23 | 3.03 PBM z-score against 500 random probes |
| B24 | 0.23 PBM z-score against 500 random probes |
| B25 | 0.43 PBM z-score against 500 random probes |
| B26 | 0.36 PBM z-score against 500 random probes |
| B27 | 0.4 PBM z-score against 500 random probes |
| B28 | 3.05 PBM z-score against 500 random probes |
| B29 | 0.15 PBM z-score against 500 random probes |
| B30 | 3 PBM z-score against 500 random probes |
| B31 | 0.37 PBM z-score against 500 random probes |
| B32 | 0.18 PBM z-score against 500 random probes |
| B33 | 0.07 PBM z-score against 500 random probes |
